This note sets out measurements from the nanobody polyreactivity screen of Harvey et al. (2022).

This data set is described as follows: yeast display, Sf9 membrane polyspecificity reagent, FACS + sequencing; frameworks hold sequencing errors. Summed up:
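In a synthetic yeast display library (Saccharomyces cerevisiae BJ5465), nanobody expression was induced with galactose for 36–48 hours. FACS gates were set low and high (top ~1%) using anti-HA fluorescence for expression and streptavidin fluorescence for binding of the Sf9 membrane reagent. Each polyreactivity label is drawn from the gate of origin.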
For “QVQLVESGGGLVQAGGSLRLSCAASGFIFDYYAMGWYRQAPGKERELVAAITSRSGSTYYADSVKGRFTISRDNAKNTVYLQMNSLKPEDTAVYYCAARRARRDPVGYVYAKYGYWGQGTQVTVSS”, the “polyreactivity (PSR sort gate)” value is on record as “high polyreactivity”.

Regarding “QGQRVESGGGLVQAGGSLRLSCAASGFIFWDYDMVWYRQAPGKEREMVAAISDSGGDTYYADSVKGRFTISRDNSKNTVYLQMHSLKREDTAVIYCAADVELWVFRGQQFDYWGQGTQVTVSS”, the “polyreactivity (PSR sort gate)” value is on record as “low polyreactivity”. Turning to “KDQLVESGVGLVQAGCSLRLSCAASGRTLRRNAMGWYRQAPRKERELVAAISTGGGSTYYADSVKGRFTISRDNAKNTVYLQMNSLKPVDTAVYYCAAVYSQSTKRYELYYWGQGTQVTVSS”, the “polyreactivity (PSR sort gate)” value is on record as “high polyreactivity”. With “QVQLEESGGGLVQAGGSLRLSCAASGLTFSRYAMGSYRQATGKERELVAAISIRGGNTYYADSVKGRFTISRDNAKNTVYLQMNSLKPEDTAVYYCNAVVYHYTLDHEYDYWGQGTQVTVSS” the entry was “high polyreactivity”; with “QVQLVESGGGLVQAGGSLRLSCAASGITFYVYAMGWYRQAPGKEREFVAAISTRDGTTYADSLKGRFTISRDNAKNTVYLQMNSLKPEDTAVYYCAAAYYYDGQQGDFDYWGQGTQVTVSS”, “low polyreactivity”. With “QVQLVESGGGLVQAGGSLRLSCAASGSTYVGYTLGWYRQAPGKERELVAAITRRSGSTYYADSVKGRFTISRDNAKNTVYVQMNSLKPEDTAVYYCAKDFSRYSRFGHTEHDYWGQGTQVTVSS” the entry was “high polyreactivity”; with “QVQLVESGGGLVQAGGSLRLSCAASGRIFILYAMGWYRQAPAKERALVAAISSGGGRTYYADSVKGRFTISRDNAKNTVYLQMNSLKPEDTAVYYCATRRRRTSQRQGYDYWGQGTQVTVSS”, “high polyreactivity”; with “QVQLVESGGGLVQAGGSLRLSCAASGYTFTSNAMGWYRQAPGKERELVAAISRSGVSTSYADSVKGRFTISRDNAKNTVYLQMNSLKPEDSAVYYCNRYYWDPTHPRYDSWGQGTQVTVSS”, “high polyreactivity”. Consider “QVQLVESGGGLVQAGGILRLSCAASGSTFIYNAMGLYRQAPGKEREFVASISASGGSTRYADSVKGRFTISRDNAKNTVYLQMNSLKQEDTAVYYCAKLLYLGRWRFPAGYNHWGQGTQVTVSS”, for which the “polyreactivity (PSR sort gate)” value is given as “high polyreactivity”.

As for “QVQLVESGGGLVQAGGSLRLSCAASGRTFPWYAMGWYRQAPGKERELVADITWSGGSTYYADSVKGRFTISRDNAKNTVYLQMNSLKPEDTAVYYCATRVLFWYRKYPGRPLTKYDYWGQGTQVTVSS”, the “polyreactivity (PSR sort gate)” value is “high polyreactivity”.

Regarding “QVQLVESGGGLVQAGGSLRLSCAASGFTFGRYALGWYRQPPGKERELVAVISWSGVSTYYADSVKGRFTISRDNAKNTVYLQMNSLKPEDTAVYYCNKRSYHYPYGYDYWGQGTQVTVSS”, the “polyreactivity (PSR sort gate)” value is listed as “high polyreactivity”. Turning to “QVQLEESGGGLVQAGGSLRLSCAASGSIFWIYALGWYRQAPGKERELVATITRRGGSTYYADSVKGRFTISRDNAKNTVYLQMNSLKPEDTAVYYCATEPGYTYLTSYKYDYWGQGTQVTVSS”, the “polyreactivity (PSR sort gate)” value is recorded as “low polyreactivity”. Regarding “QVQIVESGGGLVQAGGSLRVSCAASGSIYTYNGMGWYRQAPWKERELDAAISASGGRTYYADSVKGRYTISRDNAKNTVYLQMNRLKPEDNAVYYCAARILVSGLSRFDYWGQGTQVTVSA”, the “polyreactivity (PSR sort gate)” value is “high polyreactivity”. In the case of “QVKLVESGGGLVQAGGSLSLSFAYSGITFYGNAMGWYRQAAGTERELVAAITGGGGTNYADSLKGRFTISRDNEKNTVYLQMNSLKPEDTAVYYCNRDYFVWFQRGQYKRGSSWYDYWGQGTQVTVSS”, the “polyreactivity (PSR sort gate)” value is “low polyreactivity”. With “QVQLVESGGGLVQAGGSLRFSCAASGFTFTVYAMGWYRQAPGKGRELVAAISWNGGSTYYADSVKGRFTISRDNATNTDYLQRNSLKPEDTAVYYCNKYYYRGVRYYRDHDYWGQGTQVTVSS” the entry was “high polyreactivity”; with “QVQLVESGGGLVQAGGSLRLSCAASGSIFTGYAMGWYRQAPGKERELVAAISRSSGSTYYADSVKGRFTISRDNAKNTVYLQMNSLIPEDTAVYYCNAYSKYRSGRLYWMGYWGQGTQVTVSS”, “low polyreactivity”; with “QDQLVESGGGLVQAGGSLRLSGAASGSTFDRYAMGWYRQAPGKEREFVAAITWGGGSTYYADSVKGRFTISRDNAKNTVYLQMNSLKPEDTAVYYCASRYGATFGYWGQGTQVTVSS”, “low polyreactivity”. With “QVQLVESGGGLVQAGGSLRLSCAASGRIFDYNAMGWYRQAPGKERELVAAINSGGSTYADSVKGRFTISRDNAKNTVYLQMNSLKPEDTAVYYCAKSLGQTDWEYDSWGQGTQVTVSS”, the “polyreactivity (PSR sort gate)” value is listed as “low polyreactivity”. For the sequence “QVQLVESGGRLVQAGCSLRLSCAASGFTFYQNAMGWYRQAPGKVRELVAAISVSGDSTYYADSVKGRLTISRDNAKNTVYLQMNSLKPEDTAVYYCTEYFYYLSLYYYYWFNYDYWGHGTQVTVSS”, the “polyreactivity (PSR sort gate)” value was “low polyreactivity”. On to “QDQLVESGAGLVQAGGSLRLSCAASGITFSANAMGWYRQAPGKERELVATITWSGGSTYYADSVKGRFTISRDNAKNTVYLQMNSLKPEDTAVYFCNARSYDEYPYYSYNYWGQGTQVTVSS”, for which the “polyreactivity (PSR sort gate)” value is “low polyreactivity”. As to “QVQLVESGGGLVQAGGSLRLSCADSGSIFAGNAMGWYRQAPGKERELVAAISRRGGSTYYADSVKGRFTISRDNAKNTVYLQMNSLKPEDTAVYYCNALLRYAYHAAYGYWGQGTQVTVSS”, the “polyreactivity (PSR sort gate)” value is reported as “high polyreactivity”. “QVQLVESGGGLVQAGGSLRLSCAASGSTFGYYTMGWYRQAPGKERELVAAITKSGGGTYYADSVKGRFTISRDNAKNTVYLQMNSLKPEDTAVYYCADYSRFTSDYWGQGTQVTVSS”: the “polyreactivity (PSR sort gate)” value is given as “high polyreactivity”. With “QVQLVESGGGLVQAGGSLRLSCAASGSIFLSYAMGWDRPAPGKVRELVADISRSGGSTYYADSVKGRFTISRDNAKNTVYLQMNSLKPEDTAVYYCAVYIAVYEGDYWGQGTQVTVSS” the entry was “low polyreactivity”. With “QVQLVESGGGLVQAGGSLRLSCAASGRIFRGYAMGWYRQAPGKERELVAAISSGVSTNYADSVKGRFTISRDNAKNTVYLQKNSLKPVDTAVYYCAAYFYSPYGTAGKYRRRYNYWGQGTQVTVSS” the entry was “high polyreactivity”; with “QVQLVESGGGLVQAGGSLRLSCADSGIIFKGYDMGWYSQPPGKEREVVAAIYSGSTNYADSVKGRFTISRDNAKNTVYLQMNSLKPEDTAVYYCNSDLGRATFYQRVFIERGGYWGQGTQVTVSS”, “low polyreactivity”. With “QVQLVESGGGLVQAGGSLRLSCAASGRIFSSYTMGWYRQAPGKERELVAAISWRGGSTYYADSVKGRFTISRDNAKNTVYLQMNSLKPEDTAVYYCAADSRSDPGDYWGQGNQVTVSS” the entry was “low polyreactivity”.

As to “QVQLVESGGGLVQAGGSLRLSCAASGFIFASYTMGWYRQAPGNEREWVAAISRSGGRTYYADSVKGRFTISRDNAKKTVYLQMNSLKPEDTAVYYCATLETTGVNYWGQGTQVTVSS”, the “polyreactivity (PSR sort gate)” value is on record as “high polyreactivity”. As to “QVQLVESGGGLVQAGGSLRLSCAASGFIFRFNAMGWYRQAPGKEREMVAAISWRGGSTYYADSVKGRFTISRDNAKNTVYLQMNSLKPEDTAVYYCAADVTRYYRYGYNYWGQGSQVTVSS”, the “polyreactivity (PSR sort gate)” value is “high polyreactivity”. Consider “QVQLVESGGGLVQAGGSLRLSCAASGRTFGVYAMGWYRQAPGKERELVPAIRWSGGGTYYADSVKGRFTISRDTAKNTVYVQMNSLKPEDTAVYYCAASFQNSPYTRYTDMYYWGQGTQVTVTS”, for which the “polyreactivity (PSR sort gate)” value is on record as “low polyreactivity”. Take “QVQLVELGGGLVQAGGSLRLSCAASGLTLYYYAMGWYRQEPGKERELVAAINRGGSTYYADSVKGRFTISRDNAKNTVYLQMNSLKPEATAVYYCAVDYGVRDLTYYYWGQGTQVTVSS”: the “polyreactivity (PSR sort gate)” value is “low polyreactivity”.

As for “QVQLVESGGGLVQAGGSLRLSCAASGRTFGRNAMGWYRQAPGKERELVAAISSSADRTYYADSVKGRFTISRDNAKNNVYVEMNSLKPEDTAVYYCAARTFWGAYDYWGQGTQVTVSS”, the “polyreactivity (PSR sort gate)” value is on record as “high polyreactivity”. With “QVQLVESGGGLVQAGGSLSLSCAASGFTFYSYTMGWYRQAPGKDREMVAAISGRSVRTYYADSVKGRFTISRDNAKNTVYLQMNSLKPEDTAVYYCARAYYWRTSWYNYWGQGTQVTVSS” the entry was “high polyreactivity”; with “QVQLVESGGGLVQAGGSLRLSCAASGFIFSSYAMGWYRQAPGKERELVAAISRSGGRTNYADSVKGRFTISRDNAKNTVYLQMNSLKPEDTAVYYCAAGRWWVYRYARYYYWGQGTQVTVSS”, “high polyreactivity”; with “KVQLVESGGGLVQAGGSIRLSFAASGLIFLQYCMGWYRQAPGKERELVAAITTRGGRTYYADSVKGRFTISRDNPKNTVYLQMNSLKPEDTAVYYCAADSEQDNLRYYRWVWYYYWGQGPQVTVSS”, “low polyreactivity”. Take “QVQLVESGGGLVQAGGSLRLSCAASGSIFFYNTMGWYRQAPRKERELVAAISSSGRTYYADSVKGRFTISRDNAKNTVYLQMNSLKPEDTAVYYCAKRTWRGYDYWGQGTQVTVSS”: the “polyreactivity (PSR sort gate)” value is on record as “high polyreactivity”. With “QVQLVESGGGLVQAGGSLRLSCAASGITFFTYTMGWYRQAPGKERELVARIRWDGGSTYYADSVKGRFTISRDNAKNTVYLQMNSLKPEDTAVYYCAADYPYSTYDYWGQVTQVTVSS” the entry was “low polyreactivity”; with “QVQLVESGGGLVQAGGSLRFSCADSGFTFRTYAMGWYIQAPGKERELVATIRRAGSTYYADSVKGRFTISRDNAKNTVYLQMNSLKPEDTAVYYCAATHYSFSWGYDYWGQGTQVTVSS”, “high polyreactivity”. With “QVLLVDSGGGLVQAGGSLSLICAASGFTFYYNAMGWYRQAPGKERELVAGISGRGGTTYYADSVNGRFTISRDNAKNTVYLQMNSLKPEDTAVYYCAARKVRARSKFEYWGQGTQVTVSS” the entry was “high polyreactivity”. With “QVQLVESGGGLVQAGGSLRLSCAASGSTFRLNAMGWYRQAPGKERELVAAITSGGSTTYADSVKGRFTISRDNAKNTVYLQMNSLKPEDTAVYYCAAANWGTPPYDYWGQGTQVTVSS” the entry was “low polyreactivity”; with “QDQLVESRGGLVQAGGSLRLSCAASGGTFRVYAMGWFIQAPGKERELVAAISSGGSTNYADSVNGRFTISRDNSKNTVYLQMNSLKPEDTAVYYCAADRVGWSVYRGDYWGHGTQVTVSS”, “high polyreactivity”.
